Measured values published in the RNAGym collection of RNA variant scans (doi:10.1073/pnas.2313332121).

B1: TPR t1 (parent)
chain: GACCAAUCUGCCCUCAGAGCUCGAGAACAUCUUCGGAUGCAGAGGAGGCAGGCUUCGGUGGCGCGAUAGCGCCAACGUCCUCAACCUCCAAUGCAUCCCACCACAUGAUGAUGCCUGAAGAGCCUUGGUUUUUUG

Variants of: B1
Test: polymerase ribozyme fitness, log enrichment relative to wild type (log ratio); higher = more active; in vitro selection for triplet polymerase activity
In short: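 Fitness compares each genotype's enrichment to that of the wild type on a logarithmic scale, averaging replicates with inverse-variance weights. The logarithm is base 2. Enrichment came from Illumina sequencing of input and output libraries after one triplicate round of in vitro selection, which included frozen incubation at −7 °C, of PCR-built, transcribed mutant libraries of each subunit of a heterodimeric triplet polymerase ribozyme. Only genotypes with ≥10 input reads and ≥1 read per output were kept.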

Variant	polymerase ribozyme fitness (log ratio)
C12U G51A C79U C101A	-3.78
C13A G36C C64U C80U U112G G117A	-6.43
C12U G45U U132C	-1.19
C13A G69U	-1.23
C13A G69C	-3.15
C13A G69A	-3.52
C13G C82G C102A	-4.14
C12U G113A	0.642
C12U G113U	-1.65
C12U G69U G77A	0.767
C13G A43U G58A	-4.45
C13A G48A G69A C114U U129A	-6.99
C13G C82A	-2.47
C12U G63U A68C C123U	-4.7
C12U U78C	-0.312
C13A G52U C70U	-2.88
C13G C82A A84G C123A	-0.276
C13G C64U A95G U112C C124U	0.563
C13A U55C G69C G110U	-4.5
C13A G61U	-1.08
C13A U21G G63A	-4.73
C12U G63C G93U	-1.29
C13G C72G	-0.869
C13G C72A	-0.649

Variant	polymerase ribozyme fitness (log ratio)
C13A G42U C72G	-3.63
C12U U112A	1.23
C13A G36A G63A C80U	-3.86
C13G A26G C70U C99U A119U	-4.5
C13A A37G	-2.27
C13G C64U A83U A95C G110A G120U	-3.89
C13A G57U	-1.78
C13A G113U	-4.1
C13A G113A	-2.48
C12U G48A C49G G51A U112A C123A	0.0276
C13G A26G	-3.54
C12U G71U A90G A121G	1.71
C12U G48U C94U	-1.04
C13A C15A G47A C123U G127C	-3.95
C13A G57C C85A	-1.99
C13G C40G C85G C89G C123G	-4.99
C13G C56G C88A G110C	-5.35
C12U G110C	-2.23
C12U G110A	0.122
C13A G63U C70U	-0.406
C13G C62A C94U	-3.01
C12U G48A C56G C72U	-1.47
C13A A50G C62A	-3.49
C12U U116A	-1.04

Variant	polymerase ribozyme fitness (log ratio)
C12U G71U	0.0835
C13A U55C G58A G63A	-3.2
C12U G61C A119U	-1.74
C12U G44C C79A C89A	-1.32
C13A C49U C53G G61U	-3.09
C13A U38A A46U C70G A121U	-5.9
C13A A24G G58C C115A	-3.96
C12U G51A G120A G127C G128U	-1.84
C12U U21A G35A A74G	-4.28
C13A C86U C124G	1.07
C13G A16U C56U A105G A111C	-4.91
C13A G93C	-2.4
C13G C89G	-3.05
C12U G60A G69A	-4.56
C13A G60A U131A	-2.5
C12U G52U C53G G61C	-4.41
C12U G48C G63U U130C	-1
C12U G63U A75C	-0.74
C13A G44C C124A	0.459
C13A C101U G113A	-2.95
C12U U21G C53U A68C C124A	-6.61
C13A G42A G69U A111C U116A U129G	-4.99
C13G C56G	-2.09
C13A G45C A84C A91C	-4.71

Variant	polymerase ribozyme fitness (log ratio)
C13A U59G C89G U106C	-3.02
C12U U33G C123G	-4.3
C12U G63C	-0.399
C12U G63A	-0.293
C13G C72U C94U C101G	-4.88
C13A G23C A50G G113C	-6.66
C13A A18U G42U G61U C123G	-0.471
C12U U33G	-5.61
C12U G93U	-0.871
C12U G93A	-0.0469
C13A G60A C102U A118C G120U	-2.89
C12U G60C C123G	1.46
C13A C49G	-1.06
C13A C49U	-1.33
C12U G45U G57A G60A U116G	-1.77
C13A C40A G52A C56U	-2.98
C13G C40A A84U U106A	-3.53
C13G C73A A90C U92C U126A	-5.92
C13A A18C C94G C114U	-5.11
C12U G52U A68G A74G	-3.85
C13G A18C U38G C88A A121U	-3.5
C13A U87A G113A	-2.16
C13A A16U C72U G93A	-3.35
C13A U14A G44A C56U	-2.36

Variant	polymerase ribozyme fitness (log ratio)
C13A A103U U109A U125A U131G	-6.73
C13A G48U A111C	-2.2
C13A A27U G47U	-3.3
C13A G60U C72U A91U G120A	-2.35
C13A C82G	-1.93
C13A C82U	-1.59
C12U U125A	0.114
C13A G69U U129A	-1.63
C13G A24G G48A G63C C86G U109A	-6.58
C13G C56U U112C	0.0684
C13G C62U G120U	-0.935
C13G C115A	-1.77
C13G A95G U112C C124U	1.05
C13G C49A	-1.26
C12U U21G U38A G61C A103U U112C C115A A118G G127U	-6.24
C12U G48U C49U G63C C94U G128C	-4.36
C13G C53G	-1.53
C13A U33G C124G	-4.34
C13A C28U	-3.53
C13A G71U	-1.35
C13G A50G U106A C124A G127U	1.19
C13G A119U C123U	1.58
C13A G60U	-1.81
C12U U130A	-0.0283

Variant	polymerase ribozyme fitness (log ratio)
C13A C73U C79U U132A	-1.98
C13A C72U U78A	-2.1
C13G C53U G113A G128U	-5.15
C13G A118U	-1.02
C13A U112C	-0.888
C13A G120C	-0.417
C13A G39C	-2
C12U G60U A90G C99U	-2.17
C13A A46C C64U U112C	-1.16
C13G C89A A90C U130C	-3.77
C13G A43U A84G A121C U131G	-1.74
C13A A84U G93U G117U	-6.66
C12U G45C C104A G117A	-3.2
C13G A41U G117C	-5.86
C13A A24U G63C A83U A84C G120U G122A U125A	-6.79
C13A C40U C49G C88A	-3.8
C13G A18U A27G C53U C89A C104U	-5.29
C13A C85U C102U	-4.16
C13A C22A C31A A46U G71A G120A	-6.56
C13A C73A	-1.36
C13G C72U U132A	-2.7
C13A A29G U55A C76G C101G C102A U112C	-8.04
C13G C49U C82A C124G U125A	0.252
C13G A29C U54A A105C U106A	-3.03

Variant	polymerase ribozyme fitness (log ratio)
C13A A41C C73G	-4.43
C13A C123A	-0.742
C13A A18U G42U C123G	-0.827
C13A A27U C101U	-4.94
C13G C62A C82A	-3.18
C12U G69U	1.01
C13A C40U C72U	-2.43
C13A G17A C62A G120A	-5.55
C12U G47U G69A G110C U112G	-7.15
C13A A90G	-1.55
C13A C99A	-6.93
C12U U32C C56G	-0.144
C12U U92C	-1.15
C13G C28U C101U	-4.7
C12U G52A C86U C97A	-4.13
C13A C70G	-3.31
C13A C70U	-2.36
C12U G45A G51U	-3.98
C12U U14C C15G A41C U112A	-2.25
C13G C76U	-1.95
C13G C49A G60A C64U U96A U106G G110A U132C	-6.52
C13G C114A	-2.59
C13A C22G G69U G120U	-1.67
